In patent US20200306385A1 (ADC THERAPEUTICS S A, published 2020):

Molecular target: CD22 (human, UniProt P20273 20-847)
Assay: cell-based or functional assay

B1: Epratuzumab-A (antibody, V domains shown)
VH: QVQLVQSGAEVKKPGSSVKVSCKASGYTFTSYWLHWVRQAPGQGLEWIGYINPRNDYTEYNQNFKDKATITADESTNTAYMELSSLRSEDTAFYFCARRDITTFYWGQG
VL: DIQLTQSPSSLSASVGDRVTMSCKSSQSVLYSANHKNYLAWYQQKPGKAPKLLIYWASTRESGVPSRFSGSGSGTDFTFTISSLQPEDIATYYCHQYLSSWTFGQG
modifications: PBD dimer drug-linker A (SG3246) conjugated to thiols of TCEP-reduced cysteine disulfide bridges; DAR 2.03; which cysteines are modified is not stated
EC50 (µg/mL), in vitro cytotoxicity (cell survival, Alamar Blue, 4 days) on CD22+ve Daudi cells: 0.0136 µg/mL
EC50 (µg/mL), in vitro cytotoxicity (cell survival, Alamar Blue, 4 days) on CD22+ve Ramos cells: 0.0332 µg/mL
EC50 (µg/mL), in vitro cytotoxicity (cell survival, Alamar Blue, 4 days) on CD22+ve WSU-DLCL2 cells: 0.0243 µg/mL
